Laboratory results from article doi:10.1101/2025.08.19.671159.

Biological target: 14-3-3ζ of the Tni-FNL-produced BRAF complexes (human) (UniProt P63104)
Experiment: cryo-EM structure; BRAF:14-3-3_(2):MEK complex co-expressed in Tni-FNL insect cells and purified as a complex; 3.8 Å

stoichiometry N: 2
Substance: 14-3-3ζ of the Tni-FNL-produced BRAF complexes (from UniProt P63104 1-245) (natural protein)
